{
  "source": "paper PMC4822561",
  "about": "“Structure of a quinolone-stabilized cleavage complex of topoisomerase IV from Klebsiella pneumoniae and comparison with a related Streptococcus pneumoniae complex” (Acta Crystallographica. Section D, Structural Biology, 2016)",
  "binders": {"B1": {"name": "S. pneumoniae topoisomerase IV ParC55 (domain or fragment)", "chain": "MSNIQNMSLEDIMGERFGRYSKYIIQDRALPDIRDGLKPVQRRILYSMNKDSNTFDKSYRKSAKSVGNIMGNFHPHGDSSIYDAMVRMSQNWKNREILVEMHGNNGSMDGDPPAAMRYTEARLSEIAGYLLQDIEKKTVPFAWNFDDTEKEPTVLPAAFPNLLVNGSTGISAGYATDIPPHNLAEVIDAAVYMIDHPTAKIDKLMEFLPGPDFPTGAIIQGRDEIKKAYETGKGRVVVRSKTEIEKLKGGKEQIVITEIPYEINKANLVKKIDDVRVNNKVAGIAEVRDESDRDGLRIAIELKKDANTELVLNYLFKYTDLQINYNFNMVAIDNFTPRQVGIVPILSSYIAHRREVILARSRFDKEKAEKRLHIVEGLIRVISILDEVIALIRASENKADAKENLKVSYDFTEEQAEAIVTLQLYRLTNTDVVVLQEEEAELREKIAMLAAIIGDERTMYNLMKKELREVKKKFATPRLSSLEDTAKALE", "notes": "ParC breakage-reunion domain (ParC55), S. pneumoniae isolate 7785 (St George's Hospital); two residues between ParC and the His6 tag; also called ParC N-terminal domain; ParC subunit; source: E. coli BL21(λDE3) pLysS, pET-29a (C-terminal His6); purification protocol in the Supporting Information"}},
  "key": {"[1]": {"molecular_target": "the molecule itself", "experiment": "crystal structure; K. pneumoniae ParE-ParC fusion (4.5 mg/ml) co-crystallised with pre-cut 34-mer E-site DNA (1:1.2 protein:DNA), 2 mM levofloxacin, 10 mM MgCl2; vapour diffusion, 298 K; 3.35 Å, space group P2(1)"}, "[2]": {"molecular_target": "the molecule itself", "experiment": "crystal structure; S. pneumoniae ParC55:ParE30:18-mer E-site DNA 1:1:1.2 at 4 mg/ml, 2 mM levofloxacin, 10 mM MgCl2; capillary counter-diffusion, 304 K; 2.9 Å, space group P3(1)21"}, "[3]": {"molecular_target": "B1", "experiment": "crystal structure; S. pneumoniae ParC55:ParE30:18-mer E-site DNA 1:1:1.2 at 4 mg/ml, 2 mM levofloxacin, 10 mM MgCl2; capillary counter-diffusion, 304 K; 2.9 Å, space group P3(1)21", "conditions": "both partners purified"}},
  "data": [
    {"binder": "K. pneumoniae topoisomerase IV ParC breakage-reunion domain (ParC55; residues 1–490) (domain or fragment, K. pneumoniae (strain ATCC 35657), ParC breakage-reunion domain (ParC55), K. pneumoniae strain ATCC 35657, residues 1-490; In the crystal this stretch was joined on one chain with ParE 390-631 (see m1: M-ParE(390-631)-EF-ParC(1-490)-His6); written alone for the pair rows; also called ParC NTD 1–490; ParC subunit; source: E. coli BL21(λDE3) pLysS, pET-29a; purification protocol in the Supporting Information) MSDMAERLALHEFTENAYLNYSMYVIMDRALPFIGDGLKPVQRRIVYAMSELGLNASAKFKKSARTVGDVLGKYHPHGDSACYEAMVLMAQPFSYRYPLGDGQGNWGAPDDPKSFAAMRYTESRLSKYAELLLSELGQGTVDWVPNFDGTLQEPKMLPARLPNILLNGTTGIAVGMATDIPPHNLREVAKAAITLIEQPKTTLDELLDIVQGPDFPTEAEIITSRAEIRKIYQNGRGSVRMRAVWSKEDGAVVITALPHQVSGAKVLEQIAAQMRNKKLPMVDDLRDESDHENPTRLVIVPRSNRVDMEQVMNHLFATTDLEKSYRINLNMIGLDGRPAVKNLLEILSEWLVFRRDTVRRRLNHRLEKVLKRLHILEGLLVAFLNIDEVIEIIRTEDEPKPALMSRFGISETQAEAILELKLRHLAKLEEMKIRGEQSELEKERDQLQAILASERKMNNLLKKELQADADAFGDDRRSPLHEREEAKAMS", "values": [
      {"measurement": "stoichiometry N", "setting": "[1]", "result": 2}
    ]},
    {"binder": "B1", "values": [
      {"measurement": "binding result", "setting": "[2]", "result": "binds"}
    ]},
    {"binder": "S. pneumoniae topoisomerase IV ParE30 (domain or fragment, ParE TOPRIM domain (ParE30), S. pneumoniae isolate 7785 (St George's Hospital); the limits fit the printed Glu474 and Glu475; also called ParE C-terminal domain; ParE TOPRIM domain; source: E. coli BL21(λDE3) pLysS, pET-19b (N-terminal His10); purification protocol in the Supporting Information) KNKKDKGLLSGKLTPAQSKNPAKNELYLVEGDSAGGSAKQGRDRKFQAILPLRGKVINTAKAKMADILKNEEINTMIYTIGAGVGADFSIEDANYDKIIIMTDADTDGAHIQTLLLTFFYRYMRPLVEAGHVYIALPPLYKMSKGKGKKEEVAYAWTDGELEELRKQFGKGATLQRYKGLGEMNADQLWETTMNPETRTLIRVTIEDLARAERRVNVLMGDKVEPRRKWIEDNVKFTLEEATVF", "values": [
      {"measurement": "binding result", "setting": "[3]", "result": "binds"}
    ]}
  ]
}
